From US12545899B2, “Luciferase enzymes for use with thermostable luciferins in bioluminescent assays” (Promega Corporation, priority 2018, dated 2026)
Numbering of substitutions follows the chain as printed. Numbers in names are those of the source.

Assays:
[1] = Differential scanning fluorimetry (DSF) analysis; format: physicochemical
How it was run: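 Enzymes mixed with Sypro Orange at 5× final, heated 30–95° C at 1° C per minute with fluorescence read every 60 s. Storage buffer 50 mM HEPES pH 7.5, 100 mM NaCl, 2 mM EDTA, or for luciferase variants 20 mM HEPES pH 7.5, 200 mM NaCl, 1 mM EDTA; per-minute fluorescence change plotted against temperature.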

[2] = Effect of individual mutations: maximum luminescence with CS0333; format: biochemical; settings: 10 fM to 1 mM CS0333; Detection Reagent (DR) buffer
Protocol: Experiments were also conducted to evaluate and compare the activities of the various luciferase enzyme variants, including the effects of individual amino acid mutations. To evaluate the effect of individual mutations on luciferase enzyme variants, 0.005 mg/ml luciferase enzyme variant was mixed with 1 mM ATP+10 fM to 1 mM CS0333 in Detection Reagent (DR) buffer.

[3] = Kinetic analysis of thermostable variants with D/L-luciferin (Table 10); format: biochemical
Protocol: (§1) Experiments were also conducted to evaluate the activities (i.e. Vmax and Km) of the various thermostable luciferase variants of Ppe (SEQ ID NO: 1) described above.
(§2) Tables 10 and 11 include representative results of kinetic analysis of the thermostable variants with D/L luciferin, CS0333, and CS0280. […] MK0135 and MK0137 have amino acid substitutions that improve thermostability relative to MK0133 and MK0134, respectively, while retaining activity on the luciferin analogs CS0333 and CS0280.

[4] = Kinetic analysis of thermostable variants with CS0333 (Table 10); format: biochemical
Protocol: as §1, §2

[5] = Kinetic analysis of thermostable variants with CS0280 (Table 10); format: biochemical
Protocol: as §1, §2

[6] = Luminescence at 1 mM D/L-luciferin (Table 11); format: biochemical; settings: 1 mM substrate, 1 mM ATP
Source text: as §2

[7] = Luminescence at 1 mM CS0333 (Table 11); format: biochemical; settings: 1 mM substrate, 1 mM ATP
Source text: as §2

[8] = Luminescence at 1 mM CS0280 (Table 11); format: biochemical; settings: 1 mM substrate, 1 mM ATP
Source text: as §2

[9] = Kinetic analysis of thermostable variants with D/L-luciferin (Tables 13, 14); format: biochemical; settings: 2 mM ATP
[10] = Kinetic analysis of thermostable variants with CS0333 (Tables 13, 14); format: biochemical; settings: 2 mM ATP
[11] = Kinetic analysis of thermostable variants with CS0280 (Tables 13, 14); format: biochemical; settings: 2 mM ATP

B1: MK0125: SEQ ID NO: 92; H244W+T344A+I396L+S193A+N228D+L305F+S306P+I109V (protein)
chain: MADKNILYGPEPFYPLEDGTAGEQMFDALSRYAAIPGCIALTNAHTKENVLYEEFLKLSCRLAESFKKYGLKQNDTIAVCSENSLQFFLPVIASLYLGIIVAPVNDKYVERELIHSLGIVKPRIVFCSKNTFQKVLNVKSKLKSIETIIILDLNEDLGGYQCLNNFISQNSDSNLDVKKFKPYSFNRDDQVAAIMFSSGTTGLPKGVMLTHKNIVARFSIAKDPTFGDAINPTSAILTVIPFHWGFGMMTTLGYFTCGFRVVLMHTFEEKLFLQSLQDYKVESTLLVPTLMAFLAKSALVEKYDFPHLKEIASGGWPLSKEIGEMVKKRFKLNFVRQGYGLTEITSAVLITPKGDAKPGSTGKIVPLHAVKVVDPTTGKILGPNEPGELYFKGPMKMKGYYNNEEATKAIIDNDGWLRSGDIAYYDNDGHFYIVDRLKSLIKYKGYQVAPAEIEGILLQHPYIVDAGVTGIPDEAAGELPAAGVVVQTGKYLNEQIVQDYVASQVSTAKWLRGGVKFLDEIPKGSTGKIDRKVLRQMLEKHTNGHHHHHHHH
- DSF Tm (° C.) ([1]; Table 9A): 69 °C
- Vmax (RLU) with CS0333 [2]: 2,625,480 RLU

B2: MK0127: SEQ ID NO: 93; H244W+T344A+I396K+S193A+L305F+S306P+I109V (protein)
chain: B1 chain with K107N, T289S, W316A, I344A
- DSF Tm (° C.) ([1]; Table 9A): 66 °C
- Vmax (RLU) with CS0333 [2]: 2,293,340 RLU

B3: MK0108: SEQ ID NO: 75; I109V (protein)
chain: B1 chain with V109I, A193S, D228N, W244H, F305L, P306S, W316A, I344T, K396L
- DSF Tm (° C.) ([1]; Table 9A): 78 °C
- Vmax (RLU) with CS0333 [2]: 1,300 RLU

B4: MK0109: SEQ ID NO: 76; S193A (protein)
chain: B1 chain with V109I, W316A, I344A
- DSF Tm (° C.) ([1]; Table 9A): 77 °C
- Vmax (RLU) with CS0333 [2]: 1,114 RLU

B5: MK0137: SEQ ID NO: 105; H244W+S193A+N228D+L305F+S306P+I109V+C38R+F55I+Y108F+A316W+Y339M+T342S+V348I (protein)
chain: B1 chain with C38R, F55I, Y108F, Y339M
- DSF Tm (° C.) ([1]; Table 9B): 69 °C
- Km ([3]; BrightGlo Buffer): 0.0368 µM
- Vmax (RLU) ([3]; BrightGlo Buffer): 279,889 RLU
- Km ([3]; Detection Reagent Buffer): 0.196 µM
- Vmax (RLU) ([3]; Detection Reagent Buffer): 40,917 RLU
- Km ([4]; BrightGlo Buffer): 7.17 µM
- Vmax (RLU) ([4]; BrightGlo Buffer): 5,453,269 RLU
- Km ([4]; Detection Reagent Buffer): 80.5 µM
- Vmax (RLU) ([4]; Detection Reagent Buffer): 3,679,125 RLU
- Km ([5]; BrightGlo Buffer): 2.92 µM
- Vmax (RLU) ([5]; BrightGlo Buffer): 2,255,088 RLU
- Km ([5]; Detection Reagent Buffer): 18.9 µM
- Vmax (RLU) ([5]; Detection Reagent Buffer): 109,120 RLU
- Vmax (RLU) D/L-luciferin BrightGlo Buffer ([6]; BrightGlo Buffer): 326,347 RLU
- Vmax (RLU) D/L-luciferin Detection Reagent Buffer ([6]; Detection Reagent Buffer): 48,315 RLU
- Vmax (RLU) CS0333 BrightGlo Buffer ([7]; BrightGlo Buffer): 3,882,620 RLU
- Vmax (RLU) CS0333 Detection Reagent Buffer ([7]; Detection Reagent Buffer): 3,127,710 RLU
- Vmax (RLU) CS0280 BrightGlo Buffer ([8]; BrightGlo Buffer): 1,931,470 RLU
- Vmax (RLU) CS0280 Detection Reagent Buffer ([8]; Detection Reagent Buffer): 117,973 RLU
- Km ([9]; BrightGlo Buffer): 0.0835 µM
- Vmax (RLU) ([9]; BrightGlo Buffer): 253,978 RLU
- Km ([9]; Detection Reagent Buffer): 0.306 µM
- Vmax (RLU) ([9]; Detection Reagent Buffer): 29,013 RLU
- Km ([10]; BrightGlo Buffer): 4.27 µM
- Vmax (RLU) ([10]; BrightGlo Buffer): 3,236,246 RLU
- Km ([10]; Detection Reagent Buffer): 18.8 µM
- Vmax (RLU) ([10]; Detection Reagent Buffer): 668,831 RLU
- Km ([11]; BrightGlo Buffer): 4.08 µM
- Vmax (RLU) ([11]; BrightGlo Buffer): 825,876 RLU
- Km ([11]; Detection Reagent Buffer): 535 µM
- Vmax (RLU) ([11]; Detection Reagent Buffer): 88,972 RLU

B6: MK0133: SEQ ID NO: 101; H244W+T344I+I396K+S193A+N228D+L305F+S306P+I109V+C38R+F55I+A316W+T342S+V348I (protein)
chain: B1 chain with C38R, F55I, Y108F, Y339M
- DSF Tm (° C.) ([1]; Table 9B): 59 °C
- Km ([3]; BrightGlo Buffer): 0.13 µM
- Vmax (RLU) ([3]; BrightGlo Buffer): 1,361,878 RLU
- Km ([3]; Detection Reagent Buffer): 0.993 µM
- Vmax (RLU) ([3]; Detection Reagent Buffer): 1,545,274 RLU
- Km ([4]; BrightGlo Buffer): 14 µM
- Vmax (RLU) ([4]; BrightGlo Buffer): 27,149,096 RLU
- Km ([4]; Detection Reagent Buffer): 77.4 µM
- Vmax (RLU) ([4]; Detection Reagent Buffer): 21,861,957 RLU
- Km ([5]; BrightGlo Buffer): 5.36 µM
- Vmax (RLU) ([5]; BrightGlo Buffer): 2,774,469 RLU
- Km ([5]; Detection Reagent Buffer): 41.6 µM
- Vmax (RLU) ([5]; Detection Reagent Buffer): 266,359 RLU

B7: MK0134: SEQ ID NO: 102; H244W+T344A+I396K+S193A+N228D+L305F+S306P+I109V+C38R+F55I+Y108F+A316W+Y339M (protein)
chain: B1 chain with C38R, F55I, T342S, V348I
- DSF Tm (° C.) ([1]; Table 9B): 57 °C
- Km ([3]; BrightGlo Buffer): 0.0257 µM
- Vmax (RLU) ([3]; BrightGlo Buffer): 377,267 RLU
- Km ([3]; Detection Reagent Buffer): 0.161 µM
- Vmax (RLU) ([3]; Detection Reagent Buffer): 430,060 RLU
- Km ([4]; BrightGlo Buffer): 2.24 µM
- Vmax (RLU) ([4]; BrightGlo Buffer): 11,167,451 RLU
- Km ([4]; Detection Reagent Buffer): 26.5 µM
- Vmax (RLU) ([4]; Detection Reagent Buffer): 9,278,637 RLU
- Km ([5]; BrightGlo Buffer): 1.21 µM
- Vmax (RLU) ([5]; BrightGlo Buffer): 15,499,640 RLU
- Km ([5]; Detection Reagent Buffer): 6.12 µM
- Vmax (RLU) ([5]; Detection Reagent Buffer): 1,208,016 RLU

B8: MK0135: SEQ ID NO: 103; H244W+S193A+N228D+L305F+S306P+I109V+C38R+F55I+A316W+T342S+V348I (protein)
chain: B1 chain with C38R, F55I, Y108F, Y339M, I344A
- DSF Tm (° C.) ([1]; Table 9B): 78 °C
- Km ([3]; BrightGlo Buffer): 0.157 µM
- Vmax (RLU) ([3]; BrightGlo Buffer): 490,914 RLU
- Km ([3]; Detection Reagent Buffer): 0.746 µM
- Vmax (RLU) ([3]; Detection Reagent Buffer): 93,531 RLU
- Km ([4]; BrightGlo Buffer): 43.4 µM
- Vmax (RLU) ([4]; BrightGlo Buffer): 4,782,661 RLU
- Km ([4]; Detection Reagent Buffer): 509 µM
- Vmax (RLU) ([4]; Detection Reagent Buffer): 1,018,125 RLU
- Km ([5]; BrightGlo Buffer): 22 µM
- Vmax (RLU) ([5]; BrightGlo Buffer): 343,822 RLU
- Km ([5]; Detection Reagent Buffer): 150 µM
- Vmax (RLU) ([5]; Detection Reagent Buffer): 15,983 RLU
